Experimental data reported in the supplement of paper PMC9112550, “Optimization of the antimicrobial peptide Bac7 by deep mutational scanning” (BMC Biology, 2022).

test system: Escherichia coli TOP10; assay: shrunken log2 fold change of peptide-encoding DNA abundance (4.5 h post-induction vs induction); higher = less antimicrobial activity (less host growth inhibition); settings: time post-induction: 4.5 h; library: site-saturation at positions 5, 18, 19, 20
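Also: peptides expressed intracellularly from a pBAD plasmid library in pooled LB shake-flask culture, induced with 0.3% L-arabinose, DNA abundance read by NGS, three biological replicates, DESeq2 with apeglm shrinkage.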

Row | Sequence | shrunken log2 fold change
1 | RRIRGRPPRLPRPRPRPMINPRP | 0.574
2 | RRIRYRPPRLPRPRPRPCVMPRP | 0.0476
3 | RRIRDRPPRLPRPRPRPLERPRP | 0.464
4 | RRIRMRPPRLPRPRPRPMCYPRP | 0.0406
5 | RRIRGRPPRLPRPRPRPKTIPRP | 0.445
6 | RRIRQRPPRLPRPRPRPAHHPRP | 0.138
7 | RRIRSRPPRLPRPRPRPVNLPRP | -0.0294
8 | RRIRIRPPRLPRPRPRPIFTPRP | 0.0285
9 | RRIRLRPPRLPRPRPRPTPVPRP | 0.559
10 | RRIRMRPPRLPRPRPRPFYFPRP | -0.569
11 | RRIRWRPPRLPRPRPRPACAPRP | 0.766
12 | RRIRCRPPRLPRPRPRPSDDPRP | 0.334
13 | RRIRIRPPRLPRPRPRPDKHPRP | -0.979
14 | RRIRRRPPRLPRPRPRPSKIPRP | 0.0224
15 | RRIRNRPPRLPRPRPRPTTEPRP | -0.257
16 | RRIRFRPPRLPRPRPRPDSIPRP | -0.0087
17 | RRIRPRPPRLPRPRPRPLQPPRP | 0.273
18 | RRIRGRPPRLPRPRPRPECLPRP | 0.685
19 | RRIRNRPPRLPRPRPRPHFIPRP | 0.121
20 | RRIRERPPRLPRPRPRPHTVPRP | -0.346
21 | RRIRPRPPRLPRPRPRPFEYPRP | -0.0601
22 | RRIRERPPRLPRPRPRPKYPPRP | -0.00672
23 | RRIRNRPPRLPRPRPRPTLSPRP | 0.145
24 | RRIRFRPPRLPRPRPRPCYMPRP | 1.54
25 | RRIRMRPPRLPRPRPRPCFEPRP | 0.286

Row | Sequence | shrunken log2 fold change
26 | RRIRLRPPRLPRPRPRPPACPRP | 0.448
27 | RRIRERPPRLPRPRPRPHAVPRP | -0.34
28 | RRIRHRPPRLPRPRPRPPECPRP | 0.331
29 | RRIRGRPPRLPRPRPRPDQYPRP | -0.212
30 | RRIRPRPPRLPRPRPRPYWFPRP | -0.579
31 | RRIRYRPPRLPRPRPRPYQKPRP | -0.0257
32 | RRIRGRPPRLPRPRPRPPRMPRP | 0.608
33 | RRIRWRPPRLPRPRPRPNGFPRP | 0.128
34 | RRIRLRPPRLPRPRPRPRNPPRP | -0.0997
35 | RRIRCRPPRLPRPRPRPHVAPRP | -0.0172
36 | RRIRNRPPRLPRPRPRPANLPRP | -0.342
37 | RRIRARPPRLPRPRPRPFPEPRP | 0.319
38 | RRIRMRPPRLPRPRPRPMNSPRP | 0.0624
39 | RRIRMRPPRLPRPRPRPMTPPRP | 0.582
40 | RRIRGRPPRLPRPRPRPTISPRP | 0.534
41 | RRIRYRPPRLPRPRPRPVESPRP | -0.0746
42 | RRIRHRPPRLPRPRPRPVFSPRP | 0.0833
43 | RRIRRRPPRLPRPRPRPDEFPRP | 0.138
44 | RRIRTRPPRLPRPRPRPNNIPRP | -0.695
45 | RRIRRRPPRLPRPRPRPGVDPRP | 0.31
46 | RRIRCRPPRLPRPRPRPTRCPRP | 0.236
47 | RRIRKRPPRLPRPRPRPEHMPRP | 0.829
48 | RRIRFRPPRLPRPRPRPDHAPRP | -0.102
49 | RRIRNRPPRLPRPRPRPMRRPRP | -0.0657
50 | RRIRWRPPRLPRPRPRPGCEPRP | 0.901

Row | Sequence | shrunken log2 fold change
51 | RRIRIRPPRLPRPRPRPNIFPRP | -0.319
52 | RRIRYRPPRLPRPRPRPSLVPRP | -0.291
53 | RRIRPRPPRLPRPRPRPGCQPRP | -0.0622
54 | RRIRLRPPRLPRPRPRPIHQPRP | 0.0518
55 | RRIRDRPPRLPRPRPRPNLHPRP | -0.0379
56 | RRIRQRPPRLPRPRPRPWDCPRP | -0.383
57 | RRIRKRPPRLPRPRPRPSDIPRP | 1.14
58 | RRIRVRPPRLPRPRPRPTPTPRP | 0.349
59 | RRIRWRPPRLPRPRPRPHIRPRP | 0.00375
60 | RRIRCRPPRLPRPRPRPQQWPRP | -0.0268
61 | RRIRLRPPRLPRPRPRPLHWPRP | 1.5
62 | RRIRSRPPRLPRPRPRPVRYPRP | 0.0544
63 | RRIRMRPPRLPRPRPRPTNMPRP | -0.0158
64 | RRIRCRPPRLPRPRPRPILQPRP | -0.0117
65 | RRIRVRPPRLPRPRPRPHQRPRP | -0.124
66 | RRIRERPPRLPRPRPRPCKHPRP | -0.5
67 | RRIRWRPPRLPRPRPRPSWWPRP | 0.2
68 | RRIRRRPPRLPRPRPRPTQDPRP | 1.87
69 | RRIRVRPPRLPRPRPRPEFAPRP | 0.169
70 | RRIRFRPPRLPRPRPRPIKVPRP | -0.379
71 | RRIRPRPPRLPRPRPRPLHGPRP | 0.0827
72 | RRIRLRPPRLPRPRPRPQYGPRP | 0.0165
73 | RRIRHRPPRLPRPRPRPKVFPRP | -0.00193
74 | RRIRHRPPRLPRPRPRPRSIPRP | -0.374
75 | RRIRPRPPRLPRPRPRPWYQPRP | -0.0967

Row | Sequence | shrunken log2 fold change
76 | RRIRERPPRLPRPRPRPDPGPRP | 0.0879
77 | RRIRNRPPRLPRPRPRPACHPRP | 0.152
78 | RRIRKRPPRLPRPRPRPRQCPRP | -0.0759
79 | RRIRSRPPRLPRPRPRPYQRPRP | -0.103
80 | RRIRRRPPRLPRPRPRPWPMPRP | -0.157
81 | RRIRGRPPRLPRPRPRPCFNPRP | 0.436
82 | RRIRTRPPRLPRPRPRPFCCPRP | -0.309
83 | RRIRSRPPRLPRPRPRPNQIPRP | 0.0721
84 | RRIRVRPPRLPRPRPRPRTFPRP | -0.284
85 | RRIRQRPPRLPRPRPRPRWSPRP | 0.231
86 | RRIRARPPRLPRPRPRPATMPRP | 0.413
87 | RRIRFRPPRLPRPRPRPKSTPRP | -0.3
88 | RRIRPRPPRLPRPRPRPTPDPRP | 0.356
89 | RRIRNRPPRLPRPRPRPSLAPRP | 0.0683
90 | RRIRKRPPRLPRPRPRPHTEPRP | 0.0507
91 | RRIRRRPPRLPRPRPRPGRVPRP | 0.593
92 | RRIRIRPPRLPRPRPRPINWPRP | -0.402
93 | RRIRERPPRLPRPRPRPANFPRP | -0.163
94 | RRIRSRPPRLPRPRPRPRRDPRP | 0.297
95 | RRIRHRPPRLPRPRPRPRYCPRP | -0.293
96 | RRIRYRPPRLPRPRPRPMDRPRP | -0.0498
97 | RRIRFRPPRLPRPRPRPCFPPRP | -0.407
98 | RRIRHRPPRLPRPRPRPDARPRP | 0.133
99 | RRIRSRPPRLPRPRPRPYEHPRP | -0.493
100 | RRIRGRPPRLPRPRPRPIKPPRP | -0.0362

Row | Sequence | shrunken log2 fold change
101 | RRIRPRPPRLPRPRPRPRGEPRP | 0.646
102 | RRIRMRPPRLPRPRPRPAAPPRP | 1.65
103 | RRIRRRPPRLPRPRPRPLGRPRP | -0.143
104 | RRIRQRPPRLPRPRPRPECMPRP | -0.0252
105 | RRIRKRPPRLPRPRPRPWMPPRP | 0.0548
106 | RRIRMRPPRLPRPRPRPEKRPRP | 0.0458
107 | RRIRFRPPRLPRPRPRPTNSPRP | -0.271
108 | RRIRHRPPRLPRPRPRPNFIPRP | -0.0658
109 | RRIRERPPRLPRPRPRPFCRPRP | -0.0911
110 | RRIRVRPPRLPRPRPRPICRPRP | 0.177
111 | RRIRARPPRLPRPRPRPEINPRP | 0.96
112 | RRIRFRPPRLPRPRPRPTWPPRP | 0.422
113 | RRIRSRPPRLPRPRPRPYYGPRP | -0.197
114 | RRIRFRPPRLPRPRPRPGHLPRP | -0.459
115 | RRIRCRPPRLPRPRPRPKQWPRP | -0.0437
116 | RRIRMRPPRLPRPRPRPDWRPRP | 0.276
117 | RRIRNRPPRLPRPRPRPSWFPRP | -0.398
118 | RRIRNRPPRLPRPRPRPCPIPRP | -0.223
119 | RRIRGRPPRLPRPRPRPIEVPRP | 0.289
120 | RRIRGRPPRLPRPRPRPAILPRP | -0.0316
121 | RRIRLRPPRLPRPRPRPSKMPRP | -0.212
122 | RRIRMRPPRLPRPRPRPTYSPRP | 0.0196
123 | RRIRTRPPRLPRPRPRPIYIPRP | -0.949
124 | RRIRCRPPRLPRPRPRPMFPPRP | -0.511
125 | RRIRTRPPRLPRPRPRPFVNPRP | -0.223

Row | Sequence | shrunken log2 fold change
126 | RRIRTRPPRLPRPRPRPTLSPRP | 0.106
127 | RRIRRRPPRLPRPRPRPYTGPRP | -0.126
128 | RRIRGRPPRLPRPRPRPNRTPRP | -0.0769
129 | RRIRMRPPRLPRPRPRPRHYPRP | -0.0487
130 | RRIRARPPRLPRPRPRPTYDPRP | -0.0892
131 | RRIRMRPPRLPRPRPRPQPWPRP | 0.561
132 | RRIRPRPPRLPRPRPRPWACPRP | -0.00713
133 | RRIRERPPRLPRPRPRPHDFPRP | -0.0616
134 | RRIRFRPPRLPRPRPRPAGYPRP | 0.00702
135 | RRIRMRPPRLPRPRPRPYFDPRP | -1.09
136 | RRIRARPPRLPRPRPRPERRPRP | 0.77
137 | RRIRVRPPRLPRPRPRPPLYPRP | -0.00849
138 | RRIRNRPPRLPRPRPRPNYDPRP | -0.222
139 | RRIRCRPPRLPRPRPRPRTAPRP | 0.304
140 | RRIRYRPPRLPRPRPRPINNPRP | -0.892
141 | RRIRERPPRLPRPRPRPRAYPRP | -0.125
142 | RRIRMRPPRLPRPRPRPRYGPRP | 0.0305
143 | RRIRKRPPRLPRPRPRPELHPRP | 0.0814
144 | RRIRIRPPRLPRPRPRPQLPPRP | -0.0273
145 | RRIRDRPPRLPRPRPRPQMMPRP | -0.211
146 | RRIRYRPPRLPRPRPRPAGIPRP | -0.359
147 | RRIRTRPPRLPRPRPRPYICPRP | -0.143
148 | RRIRLRPPRLPRPRPRPDECPRP | 0.0277
149 | RRIRWRPPRLPRPRPRPIGRPRP | -0.0158
150 | RRIRWRPPRLPRPRPRPIKQPRP | -0.00809
